Assay results as given in patent US20140170136A1 (NVIP, published 2014).

B1: eqN-HC2+eqN-kLC-1 (equinised αD11 anti-NGF antibody comprising the eqN-kLC-1 light chain and the eqN-HC2 (IgG2) heavy chain) (antibody)
heavy: QVQLKESGPGLVNPSQTLSLTCTVSGFSLTNNNVNWVRQAPGKGLEWVGGVWAGGATDYNSALKSRATITRDTSKSQVFLQMNSLTSEDTAVYYCARDGGYSSSTLYAMDAWGQGILVTVSSASTTAPKYFQLTPSCGITSDATVALGCLVSDYYPEPVTVSWNSGALTSGVHTFPSVLQSSGLYALSSMVTVPASTWTSETYICNVAHPASSTKVDKRIPPCVLSAEGVIPIPSVPKPQCPPYTHSKFLGGPSVFIFPPNPKDALMISRTPVVTCVVVNLSDQYPDVQFSWYVDNTEVHSAITKQREAQFNSTYRVVSVLPIQHQDWLSGKEFKCSVTNVGVPQPISRAISRGKGPSRVPQVYVLPPHPDELAKSKVSVTCLVKDFYPPDISVEWQSNRWPELEGKYSTTPAQLDGDGSYFLYSKLSLETSRWQQVESFTCAVMHEALHNHFTKTDISESLGK
light: DIVMTQSPASLSASLGETVTIECRASEDIYNALAWYQQKPGQSPKLLIYNTDTLHTGVPSRFSGSGSGTDYSLTINSLQSEDVASYFCQHYFHYPRTFGQGTKLELKRDDAKPSAFIFPPSSEELSSGSASVVCLVYGFYPSGATINWKVDGLAKTSSFHSSLTEQDSKDNTYSLSSTLTLPKADYEAHNVYACEVSHKTLSSPLVKSFKRQDC
notes: Tested as CHO transfectant supernatant or after Protein A purification; also called HC2 (IgG2 constant domain) equinised antibody; equinised HC2 antibody
B2: HC6 variant of equinised αD11 (equinised anti-NGF antibody with eqN-HC6 heavy chain and equine kappa light chain) (antibody)
heavy: QVQLKESGPGLVNPSQTLSLTCTVSGFSLTNNNVNWVRQAPGKGLEWVGGVWAGGATDYNSALKSRATITRDTSKSQVFLQMNSLTSEDTAVYYCARDGGYSSSTLYAMDAWGQGILVTVSSASTTAPKVFQLASHSAGTSDSTVALGCLVSSYFPEPVTVSWNSGALTSGVHTFPSVRQSSGLYSLSSMVTVPASSLKSQTYICNVAHPASSTKVDKRIVIKEPCCCPKCPGRPSVFIFPPNPKDTLMISRTPEVTCVVVDVSQENPDVKFNWYVDGVEAHTATTKAKEKQDNSTYRVVSVLPIQHQDWRRGKEFKCKVNNRALPAPVERTITKAKGELQDPKVYILAPHREEVTKNTVSVTCLVKDFYPPDINVEWQSNEEPEPEVKYSTTPAQLDGDGSYFLYSKLTVETDRWEQGESFTCVVMHEAIRHTYRQKSITNFPGK
light: B1 light
notes: also called HC6 antibody; type 6 (HC6) antibody

Key:
[1] = molecular target: T1, complement C1q (from human serum) (human, UniProt P02745 23-245; P02746 28-253; P02747 29-245); test: ELISA: antibody captured on NGF-coated plate, human serum 1/100, bound C1q detected with anti-C1q-HRP, OD450
T1 construct: mature; Native C1q in human serum diluted 1/100
Procedure: Protein A purified transfectant supernatants from Example 2 were incubated with plates coated with 0.1 ng/mL NGF to capture the antibodies. The plates were washed and then incubated with human serum and bound complement C1q was measured by binding of anti-human C1q polyclonal antibody HRP and developed as above. The binding of C1q to antigen-captured “eqN-HC2+eqN-kLC-1” was compared to a human anti-NGF MAb with human IgG1 Fc domain as positive control and an IgG4 variant as negative control.
Plates were coated with 100 μl/well of 5 μg/ml mouse NGF and blocked with 5% BSA/PBS. Coated wells were incubated for 1 hour at room temperature with cell culture supernatants, containing recombinant equine anti-NGF IgG, diluted in PBS/1% BSA (100 μl/well). The plates were washed and incubated for 1 hour at room temperature with 100 μl/well of human serum diluted 1/100 in veronal buffered saline containing 0.5 mM MgCl₂, 2 mM CaCl2, 0.05% Tween-20, 0.1% gelatin and 0.5% BSA. After washing, plates were incubated with 100 μl of a 1/800 dilution of sheep anti-C1q-HRP (Serotec) in PBS/1% BSA. After washing, plates were developed by the addition of 100 μl TMB substrate (Thermo Scientific). Development was stopped by the addition of 100 μl of 2N H₂SO₄ and absorbance read at 450 nm.

[2] = molecular target: T2, murine NGF (mouse, UniProt P01139 122-241); test: ELISA: CHO supernatant on NGF, goat anti-equine IgG-HRP, OD450, against mock supernatant
T2 construct: Coated on the ELISA plate; also called mouse NGF
Procedure: Equinised heavy and light chain cDNAs were transfected into CHO cells, the supernatants harvested and reacted in ELISA format with either equine or murine NGF. Following incubation and wash steps, the bound equine antibody was detected by reactivity with a goat-anti equine IgG specific polyclonal antibody linked to horseradish peroxidase (HRP) and developed using TMB. The optical density of the resulting product was measured at 450 nm and compared with that from mock empty vector transfected supernatant (denoted as “Mock” in FIG. 1). The results are shown in the graph of FIG. 1. Binding to mouse NGF is shown for the HC2 (IgG2 constant domain) equinised antibody (termed eqN-HC2+eqN-kLC-1). In the second part of the graph, binding of the eqN-HC2+eqN-kLC-1 antibody comprising the eqN-kLC-1 light chain and the eqN-HC2 (IgG2) constant chain to equine NGF is shown.

[3] = molecular target: T3, Protein A (UniProt P38507 37-327); test: Protein A affinity chromatography of CHO supernatant; antibody in fractions measured by quantitative NGF ELISA
T3 construct: Column resin

T1 sequence (P02745 23-245, chain 1 of 3): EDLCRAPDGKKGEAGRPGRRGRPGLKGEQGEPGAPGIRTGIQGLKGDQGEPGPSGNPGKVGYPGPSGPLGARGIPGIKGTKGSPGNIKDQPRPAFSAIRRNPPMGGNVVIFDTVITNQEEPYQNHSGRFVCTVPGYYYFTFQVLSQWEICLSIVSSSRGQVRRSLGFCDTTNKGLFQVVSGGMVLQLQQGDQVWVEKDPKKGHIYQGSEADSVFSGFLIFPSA
T1 sequence (P02746 28-253, chain 2 of 3): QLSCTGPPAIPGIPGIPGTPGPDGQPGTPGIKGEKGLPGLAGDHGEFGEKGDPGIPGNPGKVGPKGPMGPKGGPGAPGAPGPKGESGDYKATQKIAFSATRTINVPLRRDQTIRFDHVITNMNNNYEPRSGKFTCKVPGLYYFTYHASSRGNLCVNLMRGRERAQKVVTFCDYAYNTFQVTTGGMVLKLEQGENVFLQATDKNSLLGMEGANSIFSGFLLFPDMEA
T1 sequence (P02747 29-245, chain 3 of 3): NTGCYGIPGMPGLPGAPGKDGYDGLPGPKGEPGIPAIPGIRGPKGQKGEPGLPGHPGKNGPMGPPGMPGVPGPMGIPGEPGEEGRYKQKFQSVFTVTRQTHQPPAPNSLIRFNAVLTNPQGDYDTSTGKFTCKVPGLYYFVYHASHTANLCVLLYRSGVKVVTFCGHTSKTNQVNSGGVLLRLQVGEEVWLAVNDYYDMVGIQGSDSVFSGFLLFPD
T2 sequence (P01139 122-241 limits assumed): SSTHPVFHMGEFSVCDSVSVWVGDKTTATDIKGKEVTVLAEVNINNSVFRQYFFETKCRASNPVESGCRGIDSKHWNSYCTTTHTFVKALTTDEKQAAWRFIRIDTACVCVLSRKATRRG

Binder | binding result [1] | binding result [2] | binding result [3]
B1 | no binding | binds | –
B2 | – | – | no binding
